± gives the standard deviation of the averaged measurements.
System: ATP
Experiment: switch fluorescence ratio, 500 uM ATP over buffer (Cy3 cluster intensity, sum of 5 cycles each) (fold (ratio)); higher = stronger signal-on switching upon ATP binding; sequences stand for … in TCGTCGGCAGCGTCAGATGTGTATAAGAGACAGTTTTTTTTTTTTTTTTTTTTTTTTT…TC
Conditions: aptamer strand: ATP DNA aptamer (quencher-CACCTGGGGGAGTATTGCGGAGGAAGG + anchor), 100 nM annealed; ATP concentration: 500 uM
Summary of the method: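 After annealing to 100 nM quencher-labelled ATP aptamer, Cy3-labelled switching-strand clusters on a modified Illumina MiSeq flow-cell were imaged in selection buffer. A second image followed after 15 min with 500 uM ATP at 22 °C, and five such buffer/ATP cycles were done, each separated by NaOH stripping and re-annealing. The fluorescence ratio, averaged per switch-domain sequence, is summed target-cycle over summed buffer-cycle Cy3 intensity per cluster, with clusters outside 100-1000 RFU excluded.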
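Further: ATP exposure 15 min at 22 °C before imaging.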

| Sequence | switch fluorescence ratio |
| --- | --- |
| GGCTTCCCTG | 1.19 ± 0.025 |
| GGCTTGAAGC | 0.986 ± 0.018 |
| GGCTTGAGGG | 0.942 ± 0.033 |
| GGCTTGCAAC | 1.03 ± 0.012 |
| GGCTTGTGTA | 0.965 ± 0.015 |
| GGCTTTCATT | 0.983 ± 0.013 |
| GGCTTTGAGT | 0.9873 ± 0.0066 |
| GGCTTTTAAC | 0.9827 ± 0.0013 |
| GGGAAAAAAT | 1 ± 0.035 |
| GGGAAAAATC | 2.06 ± 1.5 |
| GGGAAAACGC | 1.02 ± 0.015 |
| GGGAAAACTA | 1 ± 0.028 |
| GGGAAAATTT | 1.07 ± 0.059 |
| GGGAAACCAC | 1.04 ± 0.02 |
| GGGAAACGAG | 1.04 ± 0.019 |
| GGGAAAGATA | 0.988 ± 0.021 |
| GGGAAAGCGC | 1.03 ± 0.064 |
| GGGAAAGCTG | 0.956 ± 0.096 |
| GGGAAAGGTG | 1.54 ± 0.11 |
| GGGAAATTGA | 1.01 ± 0.031 |
| GGGAAATTTG | 0.991 ± 0.026 |
| GGGAACACGA | 1.01 ± 0.018 |
| GGGAAGAACC | 1.02 ± 0.013 |

| Sequence | switch fluorescence ratio |
| --- | --- |
| GGGAAGACCG | 0.9921 ± 0.004 |
| GGGAAGAGGT | 0.988 ± 0.027 |
| GGGAAGGAAG | 1.04 ± 0.04 |
| GGGAAGGAGG | 1.02 ± 0.013 |
| GGGAAGTCAG | 1.002 ± 0.0098 |
| GGGAATCATG | 0.971 ± 0.044 |
| GGGAATCATT | 0.948 ± 0.034 |
| GGGAATCCTT | 1.03 ± 0.0018 |
| GGGAATCGGC | 1 ± 0.032 |
| GGGAATCGGG | 1 ± 0.019 |
| GGGAATGGAA | 0.995 ± 0.014 |
| GGGAATGGTC | 1.01 ± 0.043 |
| GGGAATGTAA | 0.973 ± 0.036 |
| GGGAATTAAG | 0.989 ± 0.032 |
| GGGAATTAAT | 1.04 ± 0.023 |
| GGGAATTTTA | 1.01 ± 0.012 |
| GGGACAAACC | 1.02 ± 0.019 |
| GGGACACGGT | 0.987 ± 0.023 |
| GGGACATTCA | 1.03 ± 0.023 |
| GGGACCCAGC | 0.992 ± 0.039 |
| GGGACCTGCT | 0.951 ± 0.02 |
| GGGACGTGTG | 1.007 ± 0.0068 |
| GGGACTTTGG | 0.972 ± 0.018 |

| Sequence | switch fluorescence ratio |
| --- | --- |
| GGGAGAAAGT | 0.9995 ± 0.0034 |
| GGGAGAATTA | 1.037 ± 0.0022 |
| GGGAGATATT | 0.985 ± 0.0099 |
| GGGAGATTGG | 1.09 ± 0.12 |
| GGGAGCACTA | 1.09 ± 0.017 |
| GGGAGCCCTC | 0.9958 ± 0.0055 |
| GGGAGCGCGT | 1.02 ± 0.056 |
| GGGAGCTAGG | 0.9709 ± 0.0038 |
| GGGAGGAAGA | 1.01 ± 0.03 |
| GGGAGGCCAT | 0.9683 ± 0.0076 |
| GGGAGGCTTC | 1 ± 0.021 |
| GGGAGGGAAG | 1.03 ± 0.031 |
| GGGAGGGACC | 1.01 ± 0.011 |
| GGGAGGGAGC | 1.02 ± 0.06 |
| GGGAGGGCAT | 1 ± 0.027 |
| GGGAGGGGCA | 0.971 ± 0.012 |
| GGGAGGGTAT | 1.01 ± 0.036 |
| GGGAGGGTGG | 0.996 ± 0.06 |
| GGGAGGTTCT | 0.974 ± 0.033 |
| GGGAGTGTAA | 1 ± 0.033 |
| GGGAGTTGAA | 0.9747 ± 0.0083 |
| GGGAGTTTGG | 0.975 ± 0.027 |
| GGGAGTTTTG | 1 ± 0.018 |

| Sequence | switch fluorescence ratio |
| --- | --- |
| GGGATAATGA | 0.977 ± 0.035 |
| GGGATAATGG | 0.968 ± 0.032 |
| GGGATACGCT | 1.03 ± 0.054 |
| GGGATACTTA | 1.02 ± 0.04 |
| GGGATAGATT | 1.028 ± 0.008 |
| GGGATATGGA | 1.04 ± 0.049 |
| GGGATATTTG | 0.999 ± 0.036 |
| GGGATCATAG | 0.9961 ± 0.0072 |
| GGGATCTACA | 1.03 ± 0.024 |
| GGGATCTACG | 1.04 ± 0.026 |
| GGGATCTAGG | 0.974 ± 0.026 |
| GGGATCTCGG | 1.05 ± 0.0066 |
| GGGATCTGTT | 1.01 ± 0.019 |
| GGGATGAATG | 0.9773 ± 0.0079 |
| GGGATGACAG | 1.02 ± 0.072 |
| GGGATGCAGA | 1.05 ± 0.0076 |
| GGGATGGATT | 0.969 ± 0.047 |
| GGGATGGGCG | 1.03 ± 0.031 |
| GGGATGGGCT | 1.01 ± 0.014 |
| GGGATGGTAG | 1.01 ± 0.027 |
| GGGATGTGGG | 1 ± 0.013 |
| GGGATTACCA | 1 ± 0.056 |
| GGGATTAGCA | 0.988 ± 0.042 |

| Sequence | switch fluorescence ratio |
| --- | --- |
| GGGATTATCA | 1.016 ± 0.0094 |
| GGGATTATTA | 0.981 ± 0.018 |
| GGGATTCGAG | 0.987 ± 0.02 |
| GGGATTCGGA | 0.9499 ± 0.0088 |
| GGGATTGTCT | 0.948 ± 0.033 |
| GGGATTGTGT | 0.963 ± 0.055 |
| GGGATTGTT | 0.996 ± 0.033 |
| GGGATTTAGG | 0.997 ± 0.035 |
| GGGATTTATG | 1.01 ± 0.036 |
| GGGATTTGG | 0.985 ± 0.015 |
| GGGATTTTGG | 0.973 ± 0.026 |
| GGGCAAAATC | 1.04 ± 0.018 |
| GGGCAAAGGA | 0.993 ± 0.011 |
| GGGCAACGGG | 1.2 ± 0.12 |
| GGGCAAGAGC | 1.04 ± 0.063 |
| GGGCAAGCGA | 1.08 ± 0.043 |
| GGGCAATAAC | 3.95 ± 0.13 |
| GGGCAATCGG | 1.75 ± 0.97 |
| GGGCACAGCA | 0.9752 ± 0.0056 |
| GGGCACTCGC | 0.999 ± 0.033 |
| GGGCAGACGT | 0.971 ± 0.063 |
| GGGCAGGTTT | 1.01 ± 0.014 |
| GGGCATATAG | 1.61 ± 0.71 |

| Sequence | switch fluorescence ratio |
| --- | --- |
| GGGCATTGGT | 0.991 ± 0.049 |
| GGGCCACGGA | 1.01 ± 0.048 |
| GGGCCAGGTA | 0.985 ± 0.015 |
| GGGCCATTGG | 1 ± 0.018 |
| GGGCCGGGAG | 0.984 ± 0.02 |
| GGGCCGTTTG | 1.002 ± 0.0047 |
| GGGCCTAGCG | 0.978 ± 0.019 |
| GGGCCTCGGT | 0.9914 ± 0.0087 |
| GGGCCTGAAA | 1.08 ± 0.093 |
| GGGCCTGGGA | 1.01 ± 0.012 |
| GGGCCTTGGT | 0.987 ± 0.025 |
| GGGCGCATCG | 0.999 ± 0.018 |
| GGGCGCCAAA | 1.0045 ± 0.00091 |
| GGGCGCGGGA | 0.991 ± 0.015 |
| GGGCGGACAG | 0.985 ± 0.019 |
| GGGCGGGGAA | 1.03 ± 0.035 |
| GGGCGGGGCG | 0.938 ± 0.063 |
| GGGCGGGTTT | 1.005 ± 0.0026 |
| GGGCTAGGAG | 0.987 ± 0.014 |
| GGGCTAGGTA | 1.01 ± 0.0074 |
| GGGCTAGTGT | 0.963 ± 0.01 |
| GGGCTCATTT | 1.01 ± 0.021 |
| GGGCTGAGGA | 1 ± 0.036 |

| Sequence | switch fluorescence ratio |
| --- | --- |
| GGGCTGGAGG | 0.983 ± 0.025 |
| GGGCTGGGGC | 0.997 ± 0.11 |
| GGGCTGTCAC | 0.997 ± 0.013 |
| GGGCTGTGGG | 1.01 ± 0.022 |
| GGGCTTGGGC | 0.976 ± 0.035 |
| GGGCTTTGAG | 0.979 ± 0.038 |
| GGGGAAAATT | 0.993 ± 0.036 |
| GGGGAAAGGA | 0.9896 ± 0.0085 |
| GGGGAAATTG | 0.983 ± 0.019 |
| GGGGAACAGA | 1.02 ± 0.026 |
| GGGGAAGAAC | 1.14 ± 0.18 |
| GGGGAAGGAT | 1.05 ± 0.13 |
| GGGGAATTGT | 1.02 ± 0.056 |
| GGGGACCTGG | 0.9999 ± 0.0046 |
| GGGGACCTTA | 0.993 ± 0.028 |
| GGGGACGGGG | 1 ± 0.03 |
| GGGGACGGGT | 1.01 ± 0.14 |
| GGGGAGAATA | 1.01 ± 0.026 |
| GGGGAGCGAT | 1.05 ± 0.019 |
